Measurements published in the supplement of paper PMC9170038.

Tested on: MS2 coat protein
Experiment: apparent KD of MS2 coat protein; designed switch direction (-1 OFF switch, 1 ON switch): 1; higher = weaker reporter binding
In short: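 SNAP-549-labelled MS2 coat protein was titrated, doubling from 0.7 or 1.5 nM to 3 µM, over designed RNA switches transcribed on Illumina chips by stalled E. coli RNA polymerase. Runs were done without input, with 200 uM small-molecule ligand, or with an oligonucleotide input. Apparent KD is the per-design median over clusters of curve-fitted normalised fluorescence.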

[1] = input ligand: microRNA oligo, concentration not stated
[2] = Eterna round: R95, input ligand: FMN 200 uM
[3] = Eterna round: R95, input ligand: microRNA oligo, concentration not stated
[4] = Eterna round: R95, input ligand: none

Sequence | apparent KD of MS2 coat protein (input ligand: FMN 200 uM) | apparent KD of MS2 coat protein [1] | apparent KD of MS2 coat protein (input ligand: none) | apparent KD of MS2 coat protein [2] | apparent KD of MS2 coat protein [3] | apparent KD of MS2 coat protein [4]
GGACGUCAACUCACUAAUUAACAUGAGGAUCACCCAUGUUCACAGGAUAUGAGUCCGAUUAGGACUCAGAAGGGUGAGACGUCC [Fiskers NG3ss - 48] (Eterna round: R96, puzzle: Same State NG 3) | 20.3 nM | 19.7 nM | 21.1 nM | – | – | –
GGACGUCAAUCUCCUACUUAAACAUGAGGAUCACCCAUGUCACAGGAUAUGAGUCCGAUUAGGACUCAGAAGGGUGAGACGUCC [Fiskers NG3ss - 50] (Eterna round: R96, puzzle: Same State NG 3) | 18.8 nM | 15.2 nM | 16 nM | – | – | –
GGAGAGAGAGCACAGGAUAUUUAAGGAGAGACAUGAGGAUCACCCAUGUGAGAGAGAGAGGAGAGAGAGAAGGGUGAGAGAGAGG [Altered State 2-17 - Jieux - Same State 2] (puzzle: Same State 2) | – | – | – | 109 nM | 79.1 nM | 83.9 nM
GGAGCCAAGGCAGGAUAUUCAACAUGAGGAUCACCCAUGUGGGUAAUAAAGGCCAGAAGGCCUUGGGAGAAGGGCCAUGGCUCG [Xeonanis - 13 mod13] (Eterna round: R96, puzzle: Same State NG 2) | 16.8 nM | 9.17 nM | 17.7 nM | – | – | –
GGAGCCAAGGCAGGAUAUUCAUAUAAAUUAACAUGAGGAUCACCCAUGUAGGCCAGAAGGCCUUGGGAGAAGGGCCAUGGCUCG [Xeonanis - 13 mod8] (Eterna round: R96, puzzle: Same State NG 2) | 21.6 nM | 143 nM | 157 nM | – | – | –
GGAGCCGGCACCGAGGAUAUUCAUAUUAAAACAUGAGGAUCACCCAUGUACCGCAGAAGCGGUUGGGAGAAGGCGGAUCGGCUCG [Xeonanis - 23] (Eterna round: R96, puzzle: Same State 2) | 31.3 nM | 311 nM | 534 nM | – | – | –
GGAGCCGGCACCGAGGAUAUUCAUAUUAAAACAUGAGGAUCACCCAUGUACCGCAGAAGCGGUUGGGAGAAGGCGGAUCGGCUCG [Xeonanis - 23] (puzzle: Same State 2) | – | – | – | 33 nM | 271 nM | 730 nM
GGAGCCGGCACCGAGGAUAUUCAUAUUAAAACAUGAGGAUCACCCAUGUAGAGGAGAACCUCUUGGGAGAAGGCGGAUCGGCUCG [Xeonanis - 26] (puzzle: Same State 2) | – | – | – | 289 nM | 723 nM | 1090 nM
GGAGCCGGCCUAGGAUAUUUCAUAAUAAUACAUGAGGAUCACCCAUGUAGGCCAGAAGGCCUUGGGAAGAAGGAGGUCGGCUCC [Loop Effect - U26,U29] (Eterna round: R96, puzzle: Same State NG 2) | 14.1 nM | 26 nM | 43.2 nM | – | – | –
GGAGCCGGCCUAGGAUAUUUCAUAUAUUAACAUGAGGAUCACCCAUGUAGGCCAGAAGGCCUUGGGAAGAAGGAGGUCGGCUCC [Loop Effect - U25,U27,U28] (Eterna round: R96, puzzle: Same State NG 2) | 15.7 nM | 49.8 nM | 79.6 nM | – | – | –
GGAGCUGUUAUAGGAUAUCCCGCGCAUUACGCGGGAGAAGGGUGACGCUCACAUGAGGAUCACCCAUGUGGCGUUCCAAAAUAA [Rate] (Eterna round: R96, puzzle: Same State NG 1) | 11.8 nM | 8.12 nM | 12.4 nM | – | – | –
GGAGGACAUGAGGAUCACCCAUGUGGAUGAUCGCUAGGAUAUGCGUGCAGGAAGAGUGGUGCAGAAGGAGUGGGAU [JR_SS1_Sub048] (puzzle: Same State 1) | – | – | – | – | 348 nM | –
GGAUGAUAGACAGGAUAUUGAUUGUAAUUAGGUCAAGAAGGGUCAAUGAUUUAAACGACCAGUUACAUGAGGAUCACCCAUGUU [JR_SSNG1_Sub027] (Eterna round: R96, puzzle: Same State NG 1) | 160 nM | 208 nM | 315 nM | – | – | –
GGAUGAUUGACAGGAUAUCAUUUGUAAAUUGGUUGAGAAGGGUCGAUUACUUACACGACCUGUUACAUGAGGAUCACCCAUGUU [SameState NG1 #3] (Eterna round: R96, puzzle: Same State NG 1) | 34.9 nM | 20.5 nM | 31 nM | – | – | –
GGCAGGUGCAGGCUUGCUUGCACCUGGAGACAUGAGGAUCACCCAUGUUUGGGACAAGCUUUGCUCCUCGUCUUUUC [JL ViennaUCT Isusreraar mod 7] (Eterna round: R96, puzzle: Sensor for hsa-mir-208a) | 622 nM | 111 nM | 775 nM | – | – | –
GGCAGGUGCAGGCUUGCUUGCACCUGGAGACAUGAGGAUCACCCAUGUUUGGGACAAGCUUUGCUCCUCGUCUUUUC [JL ViennaUCT Isusreraar mod 7] (puzzle: Sensor for hsa-mir-208a) | – | – | – | 617 nM | 104 nM | 766 nM
GGCCUCUGUCAAGGAUAUGCUACCGUUUCGGUAGCAGAAGGUGAUCACAUGAGGAUCACCCAUGUUUAGGCCAACAGGCCCGCC (Eterna round: R96, puzzle: Same State NG 1) | 1420 nM | 445 nM | 1070 nM | – | – | –
GGCUGUUAAUUAGGAUAUGGUCACAUGAGGAUCACCCAUGUAACGAUGAUACGAUGUGGUCAAGACUAGAAGGGAUCGCUAACA [SameState NG2 #71] (Eterna round: R96, puzzle: Same State NG 2) | 172 nM | 128 nM | 105 nM | – | – | –
GGGAGAGGUACAGGAUAUGGUGAGGAUCACCCACUAGAAGGGUGCACAUGUGAAUCGGACAUGAGGAUCACCCAUGUUGGGCGU (Eterna round: R96, puzzle: Same State NG 1) | 213 nM | 265 nM | 424 nM | – | – | –
GGGAGAGUUACAGGAUAUGGUGAGGAUUACCCACUAGAAGGGUAAACAUGUGAAUCGGACAUGAGGAUCACCCAUGUUGGGCGU (Eterna round: R96, puzzle: Same State NG 1) | 162 nM | 160 nM | 203 nM | – | – | –
GGUAAGAAUUAAGGAUAUUGAAUACAUAUGUUUAACAUGAGGAUCACCCAUGUGGGUUGCGGUGUCGAGAAGGUAAAUUACUAG [Mat - same State NG 2 - JL mod - D99] (Eterna round: R96, puzzle: Same State NG 2) | 281 nM | 179 nM | 229 nM | – | – | –
GGUAGGUUACUACCAAACAUGAGGAUCACCCAUGUAGGUGGGAAGGAUAUGGUACCUUUUAGGUACCAGAAGGUCCAUACGAUC [NGss mod of JL's mod of Fisker 2] (Eterna round: R96, puzzle: Same State NG 3) | 451 nM | 325 nM | 562 nM | – | – | –
GGUAGGUUACUACCAAACAUGAGGAUCACCCAUGUUGAUGGGAAGGAUAUGGUACCUUUUAGGUACCAGAAGGUCUACUCGAUC [NGss mod of JL's mod of Fisker 3] (Eterna round: R96, puzzle: Same State NG 3) | 111 nM | 106 nM | 148 nM | – | – | –
GGUAGGUUACUACCAAUCUACAUGAGGAUCACCCAUGUGUAGGAGGAUAUGGUACCUAUUUGGUACCAGAAGGCCUGAUUAAUU [Fiskers NG3ss - 8] (Eterna round: R96, puzzle: Same State NG 3) | 115 nM | 80.4 nM | 247 nM | – | – | –
GGUAUCGGCACAGGAUAUGCUAUCCUUUGGGUAGCAGAAGGGUGAACAUGAGGAUCACCCAUGUAGGUGCCAGGGCGUGAGCCC [JL SSNG1 1.80] (Eterna round: R96, puzzle: Same State NG 1) | 213 nM | 56.4 nM | 149 nM | – | – | –
GGUCCAGCCUGAGCUGGACAAAAGCAUGUACAUGAGGAUCACCCAUGUCAUGUACAAGCUUUUUGCUCGUCAUAAUG [Mat - hsa-mir-208a - 99] (puzzle: Sensor for hsa-mir-208a) | – | – | – | 713 nM | 18.6 nM | 806 nM
GGUCCAGCCUGAGCUGGACAAAAGCAUGUACAUGAGGAUCACCCAUGUCAUGUACAAGCUUUUUGCUCGUCUAAAAU [Mat - hsa-mir-208a - 101] (puzzle: Sensor for hsa-mir-208a) | – | – | – | 508 nM | 15.8 nM | 629 nM
GGUCCAGCCUGAGCUGGACAAAAGCAUGUACAUGAGGAUCACCCAUGUCAUGUACAAGCUUUUUGCUCGUCUAAAGA [Mat - hsa-mir-208a - 91] (puzzle: Sensor for hsa-mir-208a) | – | – | – | 517 nM | 17.7 nM | 705 nM
GGUCCAGCCUGAGCUGGACAAAAGCAUGUACAUGAGGAUCACCCAUGUCAUGUACAAGCUUUUUGCUCGUCUAAAUA [Mat - hsa-mir-208a - 90] (puzzle: Sensor for hsa-mir-208a) | – | – | – | 464 nM | 16.3 nM | 557 nM
GGUCCAGCCUGAGCUGGACAAAAGCAUGUACAUGAGGAUCACCCAUGUCAUGUACAAGCUUUUUGCUCGUCUAAAUU [Mat - hsa-mir-208a - 94] (puzzle: Sensor for hsa-mir-208a) | – | – | – | 781 nM | 15.1 nM | 578 nM
